{"source": "patent US10450368", "experiment_in_all_cases": "direct-binding ELISA", "key": {"[1]": {"biological_target": "CH505w160.D5D8gp120/293F (HIV-1)"}, "[2]": {"biological_target": "CH505w136.B2D8gp120/293F (HIV-1)"}, "[3]": {"biological_target": "CH505w160.A1D8gp120 (HIV-1)"}, "CH505.M11D8gp120/293F": {"biological_target": "CH505.M11D8gp120/293F"}, "[4]": {"biological_target": "CH505w160.T2D8gp120 (HIV-1)"}, "[5]": {"biological_target": "CH505w160.C2D8gp120 (HIV-1)"}, "[6]": {"biological_target": "CH505w160.D1D8gp120 (HIV-1)"}, "[7]": {"biological_target": "CH505w160.C4D8gp120 (HIV-1)"}, "[8]": {"biological_target": "CH505w136.B4D8gp120 (HIV-1)"}, "[9]": {"biological_target": "CH505w160.T4D8gp120/293F (HIV-1)"}, "CH505.M10D8gp120": {"biological_target": "CH505.M10D8gp120"}, "[10]": {"biological_target": "CH505_w137V201B12.D11gp120 (HIV-1)"}, "[11]": {"biological_target": "CH505w136.B27D8gp120 (HIV-1)"}, "[12]": {"biological_target": "CH505w160.C14D8gp120 (HIV-1)"}, "[13]": {"biological_target": "CH505w160.C12D8gp120 (HIV-1)"}, "[14]": {"biological_target": "CH505_w137V209C12.D11gp120 (HIV-1)"}, "[15]": {"biological_target": "CH505w136.B5D8gp120 (HIV-1)"}, "CH505.M5D8gp120293F": {"biological_target": "CH505.M5D8gp120293F"}, "[16]": {"biological_target": "CH505w136.B20D8gp120 (HIV-1)"}, "[17]": {"biological_target": "CH505w160.C11D8gp120 (HIV-1)"}, "[18]": {"biological_target": "CH505w136.B10D8gp120 (HIV-1)"}, "[19]": {"biological_target": "CH505.TF mutant gp120 M6 (HIV-1)"}, "[20]": {"biological_target": "CH505.TF mutant gp120 M8 (HIV-1)"}, "[21]": {"biological_target": "CH505w136.B3D8gp120/293F (HIV-1)"}, "CH505.M9D8gp120/293F": {"biological_target": "CH505.M9D8gp120/293F"}, "[22]": {"biological_target": "CH505.TF mutant gp120 M20 (HIV-1)"}, "[23]": {"biological_target": "CH505w136.B12D8gp120 (HIV-1)"}, "CH505.M7D8gp120/293F": {"biological_target": "CH505.M7D8gp120/293F"}, "[24]": {"biological_target": "CH505w136.B18D8gp120 (HIV-1)"}, "CH505.M19D8gp120": {"biological_target": "CH505.M19D8gp120"}, "[25]": {"biological_target": "CH505w136.B8D8gp120 (HIV-1)"}, "[26]": {"biological_target": "CH505w136.B36D8gp120 (HIV-1)"}, "[27]": {"biological_target": "CH505w136.B29D8gp120 (HIV-1)"}, "CH505.M21D8gp120/293F": {"biological_target": "CH505.M21D8gp120/293F"}}}
{"substance": "CH105 (antibody)", "values": [{"measurement": "LogAUC", "setting": "[1]", "value": 4.58}, {"measurement": "LogAUC", "setting": "[2]", "value": 12.4}, {"measurement": "LogAUC", "setting": "[3]", "value": 6.66}, {"measurement": "LogAUC", "setting": "CH505.M11D8gp120/293F", "value": 11.7}, {"measurement": "LogAUC", "setting": "[4]", "value": 4.94}, {"measurement": "LogAUC", "setting": "[5]", "value": 8.61}, {"measurement": "LogAUC", "setting": "[6]", "value": 6.03}, {"measurement": "LogAUC", "setting": "[7]", "value": 6.55}, {"measurement": "LogAUC", "setting": "[8]", "value": 10.7}, {"measurement": "LogAUC", "setting": "[9]", "value": 12.2}, {"measurement": "LogAUC", "setting": "CH505.M10D8gp120", "value": 11.3}, {"measurement": "LogAUC", "setting": "[10]", "value": 11}, {"measurement": "LogAUC", "setting": "[11]", "value": 10.4}, {"measurement": "LogAUC", "setting": "[12]", "value": 6.58}, {"measurement": "LogAUC", "setting": "[13]", "value": 11.1}, {"measurement": "LogAUC", "setting": "[14]", "value": 12.7}, {"measurement": "LogAUC", "setting": "[15]", "value": 10.6}, {"measurement": "LogAUC", "setting": "CH505.M5D8gp120293F", "value": 8.63}, {"measurement": "LogAUC", "setting": "[16]", "value": 10.7}, {"measurement": "LogAUC", "setting": "[17]", "value": 7.7}, {"measurement": "LogAUC", "setting": "[18]", "value": 8.52}, {"measurement": "LogAUC", "setting": "[19]", "value": 11.1}, {"measurement": "LogAUC", "setting": "[20]", "value": 9.33}, {"measurement": "LogAUC", "setting": "[21]", "value": 12}, {"measurement": "LogAUC", "setting": "CH505.M9D8gp120/293F", "value": 10.6}, {"measurement": "LogAUC", "setting": "[22]", "value": 10.6}, {"measurement": "LogAUC", "setting": "[23]", "value": 9.67}, {"measurement": "LogAUC", "setting": "CH505.M7D8gp120/293F", "value": 10.2}, {"measurement": "LogAUC", "setting": "[24]", "value": 13.7}, {"measurement": "LogAUC", "setting": "CH505.M19D8gp120", "value": 10.9}, {"measurement": "LogAUC", "setting": "[25]", "value": 9.86}, {"measurement": "LogAUC", "setting": "[26]", "value": 12.8}, {"measurement": "LogAUC", "setting": "[27]", "value": 10.2}, {"measurement": "LogAUC", "setting": "CH505.M21D8gp120/293F", "value": 11.2}]}
{"substance": "CH248 (antibody)", "values": [{"measurement": "LogAUC", "setting": "[1]", "value": 7.84}, {"measurement": "LogAUC", "setting": "[2]", "value": 13.4}, {"measurement": "LogAUC", "setting": "[3]", "value": 8.62}, {"measurement": "LogAUC", "setting": "CH505.M11D8gp120/293F", "value": 13.6}, {"measurement": "LogAUC", "setting": "[4]", "value": 8.34}, {"measurement": "LogAUC", "setting": "[5]", "value": 11.1}, {"measurement": "LogAUC", "setting": "[6]", "value": 8.75}, {"measurement": "LogAUC", "setting": "[7]", "value": 10.5}, {"measurement": "LogAUC", "setting": "[8]", "value": 13.4}, {"measurement": "LogAUC", "setting": "[9]", "value": 13.5}, {"measurement": "LogAUC", "setting": "CH505.M10D8gp120", "value": 13.8}, {"measurement": "LogAUC", "setting": "[10]", "value": 13.4}, {"measurement": "LogAUC", "setting": "[11]", "value": 12.9}, {"measurement": "LogAUC", "setting": "[12]", "value": 10.3}, {"measurement": "LogAUC", "setting": "[13]", "value": 12.9}, {"measurement": "LogAUC", "setting": "[14]", "value": 14.7}, {"measurement": "LogAUC", "setting": "[15]", "value": 14.6}, {"measurement": "LogAUC", "setting": "CH505.M5D8gp120293F", "value": 11}, {"measurement": "LogAUC", "setting": "[16]", "value": 12.9}, {"measurement": "LogAUC", "setting": "[17]", "value": 10.7}, {"measurement": "LogAUC", "setting": "[18]", "value": 11.5}, {"measurement": "LogAUC", "setting": "[19]", "value": 13.6}, {"measurement": "LogAUC", "setting": "[20]", "value": 12.3}, {"measurement": "LogAUC", "setting": "[21]", "value": 14}, {"measurement": "LogAUC", "setting": "CH505.M9D8gp120/293F", "value": 13}, {"measurement": "LogAUC", "setting": "[22]", "value": 13.2}, {"measurement": "LogAUC", "setting": "[23]", "value": 12.9}, {"measurement": "LogAUC", "setting": "CH505.M7D8gp120/293F", "value": 12.4}, {"measurement": "LogAUC", "setting": "[24]", "value": 14.3}, {"measurement": "LogAUC", "setting": "CH505.M19D8gp120", "value": 13.2}, {"measurement": "LogAUC", "setting": "[25]", "value": 12.3}, {"measurement": "LogAUC", "setting": "[26]", "value": 14.4}, {"measurement": "LogAUC", "setting": "[27]", "value": 12.3}, {"measurement": "LogAUC", "setting": "CH505.M21D8gp120/293F", "value": 13.8}]}
